Data on one molecule can be found in article PMC5839991 (Nature structural & molecular biology, 2018).

The target of test [1] is recombinant human serum albumin from S. cerevisiae, biotin labeled (Homo sapiens, UniProt P02768, biotin (EZ-Link NHS-PEG4-Biotin)). As to the kind of experiment: SPR. A general note: In SPR one partner is held on a chip, and binding of the other changes the refractive index at the surface.
For test [2], the target named is mouse serum albumin, biotin labeled (Mus musculus, UniProt P07724, biotin (EZ-Link NHS-PEG4-Biotin)). As to the kind of experiment: SPR.
Sequence of mouse serum albumin, biotin labeled (P07724 25-608): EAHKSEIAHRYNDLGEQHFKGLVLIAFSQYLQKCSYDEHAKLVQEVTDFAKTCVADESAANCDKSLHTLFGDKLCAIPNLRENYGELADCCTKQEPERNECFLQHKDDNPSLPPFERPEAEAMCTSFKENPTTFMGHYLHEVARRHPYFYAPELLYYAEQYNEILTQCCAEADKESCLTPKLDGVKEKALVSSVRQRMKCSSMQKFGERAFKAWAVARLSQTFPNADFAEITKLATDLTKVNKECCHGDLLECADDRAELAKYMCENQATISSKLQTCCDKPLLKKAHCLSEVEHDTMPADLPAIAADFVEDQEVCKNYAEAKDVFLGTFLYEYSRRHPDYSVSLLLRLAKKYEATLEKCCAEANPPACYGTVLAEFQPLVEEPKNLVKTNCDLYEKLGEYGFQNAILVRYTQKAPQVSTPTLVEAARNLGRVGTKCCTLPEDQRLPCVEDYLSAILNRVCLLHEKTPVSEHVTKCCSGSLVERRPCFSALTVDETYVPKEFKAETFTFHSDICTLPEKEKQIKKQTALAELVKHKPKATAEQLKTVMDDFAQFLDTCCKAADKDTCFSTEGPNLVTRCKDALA

B1: Nb.b201 (VHH)
VHH: QVQLQESGGGLVQAGGSLRLSCAASGYISDAYYMGWYRQAPGKEREFVATITHGTNTYYADSVKGRFTISRDNAKNTVYLQMNSLKPEDTAVYYCAVLETRSYSFRYWGQGTQVTVSS
As for B1, the Kd in test [1] worked out at 430 nM. For the same molecule, the binding result in test [2] is on record as “no binding”.

For orientation: Kd means the equilibrium constant for the complex coming apart.
